Results on 142 substances are retold here after the supplement of paper PMC12042874.

± gives the uncertainty stated by the source.

A short description of the data set: amyloid nucleation score (Sup35N fusion, yeast selection) (log enrichment); library NNK2; higher = more nucleation; inactive = no reads after selection. Summed up:
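Random libraries were run with three technical output replicates. In each, psi-negative yeast expressing Sup35N fused to peptides of 20 random codons were induced 24 hours with 100 μM copper sulfate and grown 7 days at 30°C on medium lacking adenine and uracil, and input and output plasmid inserts were Illumina-sequenced. The nucleation score is the DiMSum log enrichment of output over input reads, centred on the mode score of non-aggregating sequences, and sequences under 100 input reads were excluded.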
With GYWEAFFQLGASPYAGRSRG, the amyloid nucleation score is -0.13 ± 0.76. Substance GDYTYRG came in with an amyloid nucleation score of 0.773 ± 0.66. To PCIWGDVVL belongs 0.506 ± 0.41; to NCFNLEKGQMCPDWNGSSYT, -0.667 ± 0.39. To SIWYSNYNNSRKIPSAYKKW belongs 2.34 ± 0.071. To NVMKVLSNRL belongs 1.61 ± 0.1.

KRSSGRVFHPRMSRW: the amyloid nucleation score came out at 0.641 ± 0.4.

In turn, DSNMRMIA registered an amyloid nucleation score of 0.448 ± 0.6. NNRVVFTGRFL registered an amyloid nucleation score of -1.45 ± 0.47. Substance TSGQHD gave an amyloid nucleation score of -0.133 ± 0.61. Consider SMNVDTPCSGRWV, for which the amyloid nucleation score was -0.249 ± 1.1. The substance GYSDYVSYVKGC registered an amyloid nucleation score of 0.182 ± 0.8. To FKQLIMGYS belongs 3.24 ± 0.075; to FEAINMSQQCIYCFPMSRNI, 7.388 ± 0.053; to ELQGYSNCGLEIGGTCHRGY, -0.302 ± 0.61. Turning to VLRSTLDD, the amyloid nucleation score entry is “inactive”.

Regarding SSREYEEGMAGTGGLELLSL, the amyloid nucleation score worked out at 1.16 ± 0.44. As to FKDTWQSPGAVERKGMRTSV, the amyloid nucleation score was determined as 0.365 ± 0.22.

In turn, EQHIDSAMENFSDHDIVMLG came in with an amyloid nucleation score of 4.76 ± 0.064. For the substance SDWFW, the amyloid nucleation score was -0.664 ± 0.5. FKSTYVHHYRVMPGSVVLLR had an amyloid nucleation score of -1.2 ± 1.1.

PGDGTFLMFLACGCFRPFCG gave an amyloid nucleation score of -0.181 ± 0.49. For NIVYESDVVFSCISKYWL, the amyloid nucleation score came to 5.426 ± 0.04. Substance ICQCGYFWF yielded an amyloid nucleation score of 2.8 ± 0.15. GALRGGVTRLQILRCFFYFW gave an amyloid nucleation score of 0.491 ± 0.74. NCVTHFMFNLDWSLWFEVCF came in with an amyloid nucleation score of -1.04 ± 1.1. RKRVVSQEPCL had an amyloid nucleation score of -0.996 ± 0.78. Consider TPNQGNPSGYFFDNSFMKPF, for which the amyloid nucleation score result was “inactive”. Regarding NINNFLSISIFNGYASHVNC, the amyloid nucleation score entry is “inactive”. To DLIMETYHLVSKCTFCGIEN belongs 6.473 ± 0.06. Take LRLSSGLKSVRTRRRM: the amyloid nucleation score was found to be 0.904 ± 0.37. For LKLRAPRVMSGIVDSLMWLT, the amyloid nucleation score is -0.32 ± 0.63. Regarding FHARPDSNPEENMVDSGI, the amyloid nucleation score entry was “inactive”. VNYHLFVYAQWIVRKGFILL yielded an amyloid nucleation score of -0.78 ± 0.44.

As to KFTSCAVNNDIMLLLVRVGF, the amyloid nucleation score was -1.61 ± 0.75.

The substance FPGRFRGKSLEKRMVM displayed an amyloid nucleation score of 0.721 ± 0.46. For the substance IAFGAGCLMWSR, the amyloid nucleation score turned out to be 8.335 ± 0.063. To YRVNALKQIMLRLKQFCRLA belongs -0.647 ± 0.64.

Consider TMGYEFMQILLDLRNLSCSY, for which the amyloid nucleation score was determined as 3.64 ± 0.097. The substance TSTLNRDDG displayed an amyloid nucleation score of 0.367 ± 0.34.

FSYLAI: the amyloid nucleation score was -0.896 ± 0.61. On to TPLDIICEIMNFIYNTVFRL, for which the amyloid nucleation score was -0.501 ± 1.1. Substance CNTDDWK showed an amyloid nucleation score of 0.496 ± 0.66. EVCMWIPHTAVRLYQS: the amyloid nucleation score came out at 1.15 ± 0.23. In the case of WYIKF, the amyloid nucleation score was 1.54 ± 0.3.

WSYQYRLPILTTFSDFVWRK had an amyloid nucleation score of -0.339 ± 0.28. With YCHPILMRYKPVYTCHYSLM, the amyloid nucleation score was 4.86 ± 0.053.

For the substance DMLEKKE, the amyloid nucleation score was found to be 5.921 ± 0.059.

The substance PGSRTWFGTMLAPDTCLHEM came in with an amyloid nucleation score of 1.7 ± 0.16. As for FTLALSYITRTKSTHAC, the amyloid nucleation score is -0.27 ± 1.1. MVGVVWSMTRFCGQHHTILG showed an amyloid nucleation score of 0.531 ± 0.81. Turning to KHLMMDCAKRMQLRNIRDES, the amyloid nucleation score is 0.216 ± 0.2. For SGIMRIE, the amyloid nucleation score entry was “inactive”. In turn, FYIGFYSPGLCVRFKFFSAR gave an amyloid nucleation score of -1.85 ± 1.1. Consider RSVALARLMFVPLTLDSV, for which the amyloid nucleation score is 0.264 ± 0.2. As for NMHNTCMYKRKLVMDSSVWL, the entry is “inactive”; as for LGLCHMLLSDAGWRVRCRGK, 0.276 ± 1; as for CRVCRNWIWGTLSSGVTSRL, -0.61 ± 0.49.

As for GYCSDGWFAECTEWEAPVSR, the amyloid nucleation score amounted to 0.343 ± 0.64.

The substance RFNWFFRHV gave an amyloid nucleation score of 0.524 ± 0.81.

EPGMKSRSNYMHGTKGEHHR displayed an amyloid nucleation score of -0.131 ± 0.45. In the case of HKVFISLLCWEKMQKGLTQ, the amyloid nucleation score was -0.295 ± 0.55.

In the case of VACIFCLSSPHPC, the amyloid nucleation score amounted to 6.48 ± 0.084. As for RKGSNDYPFWPAVVWHPLPA, the amyloid nucleation score came to 0.753 ± 0.4. Substance CPTNIRP displayed an amyloid nucleation score of -1.18 ± 0.63.

Turning to TGAYI, the amyloid nucleation score was -1.94 ± 0.75.

Regarding VSVDHSDFRLNAVSE, the amyloid nucleation score was 1 ± 0.17.

Turning to HSKTYLKGRLCNSLVWSYES, the amyloid nucleation score was 0.712 ± 0.47. Take FALHGEDWSNSTISRNFWSR: the amyloid nucleation score is -0.031 ± 0.35. Consider GVFYDKYRGSVWSEDCKLWT, for which the amyloid nucleation score result is “inactive”. For VGRTVMKWACIVE, the amyloid nucleation score came out at 4.878 ± 0.034.

For SRLSKTRLPFWHFMNMLKMP, the amyloid nucleation score worked out at 0.126 ± 0.56. As for IFNVHMVRF, the figure is 9.317 ± 0.052. Take AYHTMGGWLRVAG: the amyloid nucleation score worked out at 0.005 ± 1.

RVRGWLSMSWGCGMGLPASS showed an amyloid nucleation score of 7.03 ± 0.074. In turn, IAYATPPSHGAC displayed an amyloid nucleation score of 1.32 ± 0.15. YGYKMVTSYVGFL showed an amyloid nucleation score of 0.753 ± 0.81.

Take NRYTNGPNF: the amyloid nucleation score was -0.106 ± 0.29. TDLECKQLG yielded an amyloid nucleation score of 1.88 ± 0.11. The substance LLLVRFAPISV gave an amyloid nucleation score of -0.176 ± 1.1. With MPLCECHNKGHVDFCDTRTA, the amyloid nucleation score was -0.072 ± 1.1. For the substance LAQWLTRLYAK, the amyloid nucleation score stood at 1.12 ± 0.4.

In turn, SWWIVFWGHTTTRWNCSLGD returned an amyloid nucleation score of -0.831 ± 0.35.

As to KECVHHDHFYG, the amyloid nucleation score entry was “inactive”. To IQCTCTPDYPVLSLSVMVNF belongs 8.361 ± 0.078; to LCKVCSMITVGSGSGSVYSQ, “inactive”; to IIHYAFSRNWSP, 1.54 ± 0.31. The substance FSIVFGI came in with an amyloid nucleation score of 1.17 ± 0.15. To CCIFWYCRADAINNCLARFD belongs 7.154 ± 0.041. Regarding WILYLRMNYWKRTCYHAIGM, the amyloid nucleation score is -0.214 ± 0.22. The substance CSRRYSLRL showed an amyloid nucleation score of -0.319 ± 0.54.

The substance PFDFWRLISSLG displayed an amyloid nucleation score of 0.531 ± 0.81. As for KLVLSNSALFRRTFAINPV, the amyloid nucleation score was 0.626 ± 0.8. For the substance YHGYLPD, the amyloid nucleation score was -0.826 ± 0.63. As to SLPSRYWVSLFCTSLLW, the amyloid nucleation score stood at 0.743 ± 0.81. As for SLIDLLPCFFICRGRCFPSV, the figure is -0.672 ± 0.37; as for YLRRGNKLCESTLVVTCTMV, -0.087 ± 1; as for DWCPTCIWRICSHVTQSWSS, 6.325 ± 0.055. Consider YISGQWCLMCRRRGISACVR, for which the amyloid nucleation score is -0.182 ± 0.55. In the case of SNSDIWHNARHPIDLATYC, the amyloid nucleation score came to 0.293 ± 0.61. Consider CHHTAYPMANFWQWLKGAMS, for which the amyloid nucleation score was found to be 0.069 ± 0.35. For the substance YYIALWVVGHMGYIDGCTSC, the amyloid nucleation score came to 2.45 ± 0.1.

ILIMRKENGCLRELCFFCRA: the amyloid nucleation score entry is “inactive”.

For WSLDSYSMTAVF, the amyloid nucleation score is -0.467 ± 0.39. As for NHLGLTDCTFQGLDSG, the figure is -1.09 ± 1.1; as for YFSGCSSFVS, -0.046 ± 0.49. As for DTSVMCFGTYTWLFELFFQW, the figure is -0.334 ± 0.45; as for FEFTTCQGDRRSCFDGWGGN, 2.19 ± 0.15. In turn, VISEGRHKSFSL displayed an amyloid nucleation score of -0.105 ± 1.1.

Regarding SNNAI, the amyloid nucleation score amounted to 0.476 ± 0.56. TRFFTSLK registered an amyloid nucleation score of -0.402 ± 0.61. Regarding LLAKNTSRNRFTHDFVPKVR, the amyloid nucleation score result was “inactive”. For ALSSFT, the amyloid nucleation score was -1.28 ± 0.78.

For the substance IRCRVRK, the amyloid nucleation score was determined as 0.484 ± 0.4.

Substance FNDGTQKSTLACVRNKYRVY returned an amyloid nucleation score of 0.633 ± 0.57.

As to HSLLLRWNGYSM, the amyloid nucleation score came to 4.92 ± 0.1. The substance WANFWSGWKVTLVCCCKIVA came in with an amyloid nucleation score of 3.7 ± 0.078. In turn, KTQKLLGRAWRNYGYGCCVR showed an amyloid nucleation score of -0.487 ± 1.1. Turning to NKARWAPVRMEALLVAQRVG, the amyloid nucleation score came to 1.28 ± 0.38. MLKWWLFTRSSSPGRHCRLD: the amyloid nucleation score is -0.471 ± 0.54.

On to IRVSLFYPSG, for which the amyloid nucleation score came to 3.89 ± 0.051. Regarding CPCSRCLVDNKVRL, the amyloid nucleation score was -0.41 ± 0.45. As for SDLTIVVSMLGFIPCSCHAF, the amyloid nucleation score amounted to 6.328 ± 0.05. To LSWYDLSVQWNLYNIVGRRV belongs 2.06 ± 0.078; to SFDFHNGGDIEYLV, “inactive”; to VSCTWFGS, 0.797 ± 0.28. The substance YMRVLYIRRLWIHFL had an amyloid nucleation score of 1.92 ± 0.18. In turn, TYSLKFGSVVGRNYNLGY returned an amyloid nucleation score of 2.08 ± 0.1.

Substance IKTRKHSGIMAC returned an amyloid nucleation score of 0.552 ± 0.32. MRFRLCNYLLRRVWDLNRGA gave an amyloid nucleation score of -1.18 ± 0.39. Regarding SLPIWVRSRVEGLQERISWL, the amyloid nucleation score came to 0.364 ± 0.5. In turn, WHGTDHKIVGQDIVVVYSAV had an amyloid nucleation score of 0.491 ± 0.6. As for LLISSLLTSDLLGPSSSVMD, the figure is 1.51 ± 0.58; as for IYINYHREA, 3.54 ± 0.052; as for RIVVYMSLCQCL, 8.609 ± 0.076. GRVFEK had an amyloid nucleation score of 4.93 ± 0.077. ILWDRISFNMLRLTRCRFFF: the amyloid nucleation score is -0.632 ± 1.1. QDGFRMYVLFDYNQCREFCS came in with an amyloid nucleation score of 1.23 ± 0.26.

The substance MLKSYDKKWWGTMAWSNSSV displayed an amyloid nucleation score of 0.711 ± 0.34. For the substance AMLDLRINTSRAGSHSRVVT, the amyloid nucleation score amounted to 2.81 ± 0.069. As to LANNSERMAAQDEVYSNCRM, the amyloid nucleation score was -0.506 ± 0.24.

As to VASGDSVLPKDIVFFSSIQG, the amyloid nucleation score is -0.653 ± 0.29.
